Publication PMC12432402 (2025)
Ends that are not written are not given here. * marks the point of attachment. FITC = O=C1OC2(c3ccc(O)cc3Oc3cc(O)ccc32)c2ccc(NC(=S)*)cc21

Target: ALFA‐tag binder 4A

Kd: 222 µM
Binder: {FITC}-SRLEEELRRRLTE [N‐terminally FITC‐labeled ALFA‐tag]
